Key:
Assay in all cases: purified protein
Assay type in all cases: biochemical, Corynebacterium glutamicum
purified protein [1] = substrate: NC(=O)C1=CN([C@@H]2O[C@H](COP(=O)(O)OP(=O)(O)OC[C@H]3O[C@@H](n4cnc5c(N)ncnc54)[C@H](OP(=O)(O)O)[C@@H]3O)[C@@H](O)[C@H]2O)C=CC1; details: reductive amination, 2-oxoglutarate, NH4Cl, Tris-HCl pH 7.0, 25 °C, pH 7.0
purified protein [2] = substrate: NC(=O)c1ccc[n+]([C@@H]2O[C@H](COP(=O)(O)OP(=O)(O)OC[C@H]3O[C@@H](n4cnc5c(N)ncnc54)[C@H](OP(=O)(O)O)[C@@H]3O)[C@@H](O)[C@H]2O)c1; details: oxidative deamination, L-glutamate, Tris-HCl, 25 °C
purified protein [3] = substrate: O=C(O)CCC(=O)C(=O)O; details: reductive amination, NADPH, NH4Cl, Tris-HCl pH 7.0, 25 °C, pH 7.0

B1: GdhA (Corynebacterium glutamicum ATCC 13032) (protein)
chain: MTVDEQVSNYYDMLLKRNAGEPEFHQAVAEVLESLKIVLEKDPHYADYGLIQRLCEPERQLIFRVPWVDDQGQVHVNRGFRVQFNSALGPYKGGLRFHPSVNLGIVKFLGFEQIFKNSLTGLPIGGGKGGSDFDPKGKSDLEIMRFCQSFMTELHRHIGEYRDVPAGDIGVGGREIGYLFGHYRRMANQHESGVLTGKGLTWGGSLVRTEATGYGCVYFVSEMIKAKGESISGQKIIVSGSGNVATYAIEKAQELGATVIGFSDSSGWVHTPNGVDVAKLREIKEVRRARVSVYADEVEGATYHTDGSIWDLKCDIALPCATQNELNGENAKTLADNGCRFVAEGANMPSTPEAVEVFRERDIRFGPGKAANAGGVATSALEMQQNASRDSWSFEYTDERLQVIMKNIFKTCAETAAEYGHENDYVVGANIAGFKKVADAMLAQGVI
B1 gave a Km (purified protein [1]) of 166 µM, a Vmax (purified protein [1]) of 1.54 µmol/min/mg and a kcat (purified protein [1]) of 0.257 s⁻¹. It also gave a kcat/Km (purified protein [1]) of 1540 M⁻¹ s⁻¹, a Km (purified protein [2]) of 505 µM and a Vmax (purified protein [2]) of 1.34 µmol/min/mg. The kcat (purified protein [2]) was 0.224 s⁻¹, the kcat/Km (purified protein [2]) was 443 M⁻¹ s⁻¹ and the Km (purified protein [3]) was 2534 µM. It also gave a Vmax (purified protein [3]) of 0.809 µmol/min/mg, a kcat (purified protein [3]) of 0.135 s⁻¹ and a kcat/Km (purified protein [3]) of 53.2 M⁻¹ s⁻¹.

From paper PMC9797636, “Transcriptomic and enzymatic analysis reveals the roles of glutamate dehydrogenase in Corynebacterium glutamicum” (AMB Express, 2022)
